{"source": "patent US20090299044A1", "about": "(priority 2006, published 2009)", "key": {"human Kv1.1 [1]": {"target": "T1, human Kv1.1 (Homo sapiens, UniProt Q09470)", "T1 sequence (Q09470 whole entry)": "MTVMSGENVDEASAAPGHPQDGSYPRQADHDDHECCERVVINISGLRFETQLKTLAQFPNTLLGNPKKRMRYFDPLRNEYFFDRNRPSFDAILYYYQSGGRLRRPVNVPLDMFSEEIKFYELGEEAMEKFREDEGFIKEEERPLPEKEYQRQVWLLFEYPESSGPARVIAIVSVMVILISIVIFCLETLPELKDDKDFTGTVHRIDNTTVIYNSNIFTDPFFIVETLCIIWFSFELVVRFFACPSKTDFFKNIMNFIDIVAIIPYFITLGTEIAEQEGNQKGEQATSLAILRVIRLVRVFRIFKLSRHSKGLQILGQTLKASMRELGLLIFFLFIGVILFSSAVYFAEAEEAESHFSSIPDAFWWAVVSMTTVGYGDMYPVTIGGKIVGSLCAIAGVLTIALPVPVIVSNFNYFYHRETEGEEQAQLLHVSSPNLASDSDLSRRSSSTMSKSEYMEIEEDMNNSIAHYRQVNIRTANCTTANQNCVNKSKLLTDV", "experiment": "cell-based", "parameters": "expressed in transfected cells; host or cells: HEK293", "conditions": "IC50 on HEK/Kv1.1"}, "[2]": {"test_system": "IL-2 production, human whole blood", "type": "cell-based"}, "[3]": {"test_system": "IFN-g production, human whole blood", "type": "cell-based"}, "[4]": {"conditions": "cited from earlier work"}, "[5]": {"conditions": "rat, in vivo, iv, 1 mg/kg"}, "human Kv1.3 channel [6]": {"target": "T2, human Kv1.3 channel (Homo sapiens, UniProt P22001)", "T2 sequence (P22001 whole entry)": "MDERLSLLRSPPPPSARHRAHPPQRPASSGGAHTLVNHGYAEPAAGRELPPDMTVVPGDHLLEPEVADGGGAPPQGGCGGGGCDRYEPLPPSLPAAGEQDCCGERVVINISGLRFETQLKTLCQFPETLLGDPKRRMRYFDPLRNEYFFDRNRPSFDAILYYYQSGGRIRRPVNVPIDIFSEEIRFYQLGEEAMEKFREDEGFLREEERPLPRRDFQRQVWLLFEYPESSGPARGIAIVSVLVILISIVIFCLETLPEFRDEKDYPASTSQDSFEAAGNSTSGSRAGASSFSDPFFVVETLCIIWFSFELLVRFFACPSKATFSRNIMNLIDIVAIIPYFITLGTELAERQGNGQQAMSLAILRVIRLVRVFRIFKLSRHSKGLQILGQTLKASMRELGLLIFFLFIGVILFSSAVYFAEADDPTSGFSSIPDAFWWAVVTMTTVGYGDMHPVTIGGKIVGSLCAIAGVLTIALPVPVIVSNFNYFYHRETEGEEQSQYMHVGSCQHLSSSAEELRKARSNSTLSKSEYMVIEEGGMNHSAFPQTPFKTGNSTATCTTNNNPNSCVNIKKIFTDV", "experiment": "cell-based or functional assay"}, "human Kv1.1 [7]": {"target": "T1, human Kv1.1", "experiment": "cell-based or functional assay"}, "human Kv1.3 channel [8]": {"target": "T2, human Kv1.3 channel", "experiment": "cell-based", "type": "cell-based"}, "[9]": {"test_system": "IL-2R on CD4+ T cells, human whole blood", "type": "cell-based"}, "[10]": {"test_system": "CD40L on CD4+ T cells, human whole blood", "type": "cell-based"}, "[11]": {"target": "human Kv1.1 voltage-gated potassium channel (human) (UniProt Q09470)", "sequence (Q09470 whole entry)": "as the sequence (Q09470 whole entry) above", "experiment": "cell-based or functional assay"}, "[12]": {"target": "human Kv1.3 voltage-gated potassium channel (human) (UniProt P22001)", "sequence (P22001 whole entry)": "as the sequence (P22001 whole entry) above", "experiment": "cell-based or functional assay"}}, "note": "Entries after “also recorded” stand apart in the source; their conditions may differ. Where two headings read alike, the source gives them in different places. Bridge positions count the residues as written; N and C are the ends. Peptide text beside a SMILES is read from it."}
{"molecule": "CC[C@H](C)[C@@H]1NC(=O)[C@H](CCCCN)NC(=O)[C@@H](NC(=O)[C@H](CCCCN)NC(=O)[C@@H](NC(=O)[C@H](CC(N)=O)NC(=O)[C@@H](NC(=O)[C@@H](NC(=O)[C@@H](NC(=O)CN)C(C)C)[C@@H](C)CC)[C@@H](C)CC)C(C)C)CSSC[C@@H]2NC(=O)[C@H](CCCCN)NC(=O)CNC(=O)[C@H](Cc3ccccc3)NC(=O)[C@H](CCCNC(=N)N)NC(=O)[C@H](CCSC)NC(=O)CNC(=O)[C@H](C)NC(=O)[C@H](CCCCN)NC(=O)[C@H](CCCCN)NC(=O)[C@@H]3CSSC[C@@H](C(=O)N[C@H](C(=O)N4CCC[C@H]4C(=O)N[C@@H](CCCCN)C(=O)O)[C@@H](C)O)NC(=O)[C@H](Cc4c[nH]cn4)NC(=O)[C@H](CSSC[C@H](NC(=O)[C@H](CCC(N)=O)NC(=O)[C@H](CCCNC(=N)N)NC(=O)[C@H](CO)NC1=O)C(=O)N[C@@H](CC(C)C)C(=O)N[C@@H](CCC(=O)O)C(=O)N1CCC[C@H]1C(=O)N3)NC(=O)[C@H](CCCCN)NC(=O)CNC(=O)[C@H](CC(N)=O)NC(=O)[C@H](C)NC2=O", "note": "[OSK1[Ala-29]] (H-GVIINVKCKISRQCLEPCKKAGMRFGKCANGKCHCTPK-OH; disulfide 8-28, 14-33, 18-35)", "values": [{"measurement": "IC50", "setting": "human Kv1.1 [1]", "result": 2.7, "unit": "nM"}, {"measurement": "potency relative to cyclosporin A in blocking the cytokine response in human whole blood (in words)", "setting": "[2]", "result": "several orders of magnitude more potent"}]}
{"molecule": "CC[C@H](C)[C@@H]1NC(=O)[C@H](CCCCN)NC(=O)[C@@H](NC(=O)[C@H](CCCCN)NC(=O)[C@@H](NC(=O)[C@H](CC(N)=O)NC(=O)[C@@H](NC(=O)[C@@H](NC(=O)[C@@H](NC(=O)CN)C(C)C)[C@@H](C)CC)[C@@H](C)CC)C(C)C)CSSC[C@@H]2NC(=O)[C@H](CCCCN)NC(=O)CNC(=O)[C@H](Cc3ccccc3)NC(=O)[C@H](CCCNC(=N)N)NC(=O)[C@H](CCSC)NC(=O)CNC(=O)[C@H](C)NC(=O)[C@H](CCCCN)NC(=O)[C@H](CCCCN)NC(=O)[C@@H]3CSSC[C@@H](C(=O)N[C@H](C(=O)N4CCC[C@H]4C(=O)N[C@@H](CCCCN)C(=O)O)[C@@H](C)O)NC(=O)[C@H](Cc4c[nH]cn4)NC(=O)[C@H](CSSC[C@H](NC(=O)[C@H](CCC(N)=O)NC(=O)[C@H](CCCNC(=N)N)NC(=O)[C@H](CCC(=O)O)NC1=O)C(=O)N[C@@H](CC(C)C)C(=O)N[C@@H](CCC(=O)O)C(=O)N1CCC[C@H]1C(=O)N3)NC(=O)[C@H](CCCCN)NC(=O)CNC(=O)[C@H](CC(N)=O)NC(=O)[C@H](CCSC)NC2=O", "note": "[S11E] (H-GVIINVKCKIERQCLEPCKKAGMRFGKCMNGKCHCTPK-OH; disulfide 8-28, 14-33, 18-35)", "values": [{"measurement": "IC50", "setting": "[3]; read-out: Analogue Activity (IC50, pM) WB/IFNg", "result": 16900, "unit": "pM"}, {"measurement": "IC50", "setting": "[2]; read-out: Analogue Activity (IC50, pM) WB/IL-2", "result": 39900, "unit": "pM"}]}
{"molecule": "CC[C@H](C)[C@@H]1NC(=O)[C@@H](NC(=O)[C@H](CO)NC(=O)[C@@H](N)CCCNC(=N)N)CSSC[C@@H](C(=O)O)NC(=O)[C@H]([C@@H](C)O)NC(=O)CNC(=O)[C@@H]2CSSC[C@@H]3NC(=O)[C@H](CCC(N)=O)NC(=O)[C@H](Cc4ccccc4)NC(=O)[C@H](C)NC(=O)[C@H]([C@@H](C)O)NC(=O)[C@H](CSSC[C@H](NC(=O)[C@H](Cc4ccccc4)NC(=O)[C@H](CO)NC(=O)[C@H](CC(C)C)NC(=O)[C@H](CCCNC(=N)N)NC(=O)[C@H](Cc4ccc(O)cc4)NC(=O)[C@H](CCCCN)NC(=O)[C@H](CCSC)NC(=O)[C@H](CO)NC(=O)[C@H](Cc4cnc[nH]4)NC(=O)[C@H](CCCCN)NC3=O)C(=O)N[C@@H](CCCNC(=N)N)C(=O)N[C@@H](CCCCN)C(=O)N[C@@H]([C@@H](C)O)C(=O)N2)NC(=O)[C@H](CCCNC(=N)N)NC(=O)[C@H](CO)NC(=O)[C@H](CCCCN)NC(=O)[C@@H]2CCCN2C(=O)[C@H]([C@@H](C)CC)NC(=O)[C@H]([C@@H](C)O)NC(=O)[C@H](CC(=O)O)NC1=O", "note": "[ShK[1-35]]", "values": [{"measurement": "half-life in vivo", "setting": "[4]", "result": "~20", "unit": "min"}, {"measurement": "half-life of the native ShK molecule", "setting": "[4]; in vivo", "result": "approximately 0.33 hour"}, {"measurement": "duration of significant suppression of Kv1.3 current (<70 POC) by 5% serum Test solutions", "setting": "[5]", "result": "≤ 1", "unit": "h"}]}
{"molecule": "E. coli-derived Fc-L-OSK1 (Fc fusion)", "values": [{"measurement": "Kv1.3 IC50 by WCVC (whole cell patch clamp, HEK293/Kv1.3 cells)", "setting": "human Kv1.3 channel [6]", "result": 3.2, "unit": "nM"}]}
{"molecule": "E. coli-derived Fc-L-ShK[1-35] (Fc fusion)", "values": [{"measurement": "Kv1.3 IC50 by WCVC (whole cell patch clamp, HEK293/Kv1.3 cells)", "setting": "human Kv1.3 channel [6]", "result": 1.4, "unit": "nM"}]}
{"molecule": "E. coli-derived Fc-L-ShK[2-35] (Fc fusion)", "values": [{"measurement": "Kv1.3 IC50 by IWQ (IonWorks planar patch clamp, CHO/Kv1.3 cells)", "setting": "human Kv1.3 channel [6]", "result": 2.8, "unit": "nM"}, {"measurement": "Kv1.3 IC50 by WCVC (whole cell patch clamp, HEK293/Kv1.3 cells)", "setting": "human Kv1.3 channel [6]", "result": 1.3, "unit": "nM"}]}
{"molecule": "E. coli-derived ShK[2-35]-L-Fc (Fc fusion)", "values": [{"measurement": "Kv1.3 IC50 by IWQ (IonWorks planar patch clamp, CHO/Kv1.3 cells)", "setting": "human Kv1.3 channel [6]", "result": 4.9, "unit": "nM"}]}
{"molecule": "E. coli-derived Shk[1-35]-L-Fc (Fc fusion)", "values": [{"measurement": "Kv1.3 IC50 by IWQ (IonWorks planar patch clamp, CHO/Kv1.3 cells)", "setting": "human Kv1.3 channel [6]", "result": 2.4, "unit": "nM"}]}
{"molecule": "Fc-L10-OSK1 (CHO-expressed) (Fc fusion)", "values": [{"measurement": "hKv1.1: IC50 (whole cell patch clamp, block of K+ current)", "setting": "human Kv1.1 [7]", "result": 41.6, "unit": "nM"}]}
{"molecule": "Fc-L10-ShK[2-35]: human IgG1 Fc fused via 10 amino acid linker to ShK[2-35], CHO-derived peptibody", "values": [{"measurement": "block of human Kv1.3 current (in words)", "setting": "human Kv1.3 channel [8]", "result": "potently blocks"}, {"measurement": "thapsigargin-induced IFN-g production in human whole blood (in words)", "setting": "[3]", "result": "suppressed; also recorded: blocked"}, {"measurement": "thapsigargin-induced IL-2 production in human whole blood (in words)", "setting": "[2]", "result": "potently blocked IL-2 secretion in human whole blood; also recorded: suppressed"}, {"measurement": "thapsigargin-induced upregulation of the IL-2R on T cells in human whole blood (in words)", "setting": "[9]", "result": "suppressing activation of the IL-2R on CD4+ T cells; also recorded: blocked"}, {"measurement": "thapsigargin-induced upregulation of CD40L on T cells in human whole blood (in words)", "setting": "[10]", "result": "blocked"}]}
{"molecule": "Fc-L25-ShK[2-35] (CHO-derived) (Fc fusion)", "values": [{"measurement": "IC50 of current block, whole cell patch clamp on HEK293/Kv1.3 cells", "setting": "human Kv1.3 channel [6]", "result": 0.15, "unit": "nM"}]}
{"molecule": "IbTx: BKCa channel inhibitor iberiotoxin, Bachem (QFTDVDCSVSKECWSVCKDLFGVDRGKCMGKKCRCYQ; Definition of Artificial Sequence: Synthetic peptide) [reference compound]", "values": [{"measurement": "thapsigargin-induced IFN-g production in human whole blood (in words)", "setting": "[3]", "result": "no significant activity"}, {"measurement": "thapsigargin-induced IL-2 production in human whole blood (in words)", "setting": "[2]", "result": "no significant activity"}, {"measurement": "thapsigargin-induced upregulation of the IL-2R on T cells in human whole blood (in words)", "setting": "[9]", "result": "no significant activity"}, {"measurement": "thapsigargin-induced upregulation of CD40L on T cells in human whole blood (in words)", "setting": "[10]", "result": "no significant activity"}]}
{"molecule": "OSK1 (native Orthochirus scrobiculosus toxin peptide)", "values": [{"measurement": "Kv1.1 (IC50, pM), whole cell patch clamp ePhys", "setting": "[11]", "result": 202, "unit": "pM"}, {"measurement": "Kv1.3 (IC50, pM), whole cell patch clamp ePhys", "setting": "[12]", "result": 39, "unit": "pM"}, {"measurement": "Kv1.3 Selectivity (=Kv1.1/Kv.3 IC50)", "setting": "[12]", "result": 5}]}
{"molecule": "OSK1 analogue E16K, K20D (peptide)", "values": [{"measurement": "WB/IFNg (IC50, nM), human whole blood", "setting": "[12]", "result": 1.32, "unit": "nM"}, {"measurement": "WB/IL-2 (IC50, nM), human whole blood", "setting": "[12]", "result": 1.58, "unit": "nM"}]}
{"molecule": "Synthetic OSK1 toxin peptide", "values": [{"measurement": "hKv1.1: IC50 (whole cell patch clamp, block of K+ current)", "setting": "human Kv1.1 [7]", "result": 0.16, "unit": "nM"}, {"measurement": "hKv1.3: IC50 (whole cell patch clamp, block of K+ current)", "setting": "human Kv1.3 channel [6]", "result": 0.039, "unit": "nM"}]}
{"molecule": "MGGHHHHHHGGGPSVFLFPPKPKDTLMISRTPEVTCVVVDVSHEDPEVKFNWYVDGVEVHNAKTKPREEQYNSTYRVVSVLTVLHQDWLNGKEYKCKVSNKALPAPIEKTISGGGGSGGGGSGVIINVKCKISRQCLEPCKKAGMRFGKCMNGKCHCTPK (protein) MGGHHHHHHGGGPSVFLFPPKPKDTLMISRTPEVTCVVVDVSHEDPEVKFNWYVDGVEVHNAKTKPREEQYNSTYRVVSVLTVLHQDWLNGKEYKCKVSNKALPAPIEKTISGGGGSGGGGSGVIINVKCKISRQCLEPCKKAGMRFGKCMNGKCHCTPK", "values": [{"measurement": "IC50", "setting": "[3]; read-out: WB/IFNg (IC50)", "result": 55200, "unit": "pM"}, {"measurement": "blockade of the whole blood cytokine response (IL-2 and IFNg), in words", "setting": "[2]", "result": "active in blocking inflammation; also recorded: modest blockade"}, {"measurement": "IC50", "setting": "[2]; read-out: WB/IL-2 (IC50)", "result": 38500, "unit": "pM"}]}
